According to the supplement of paper PMC9732359:
± gives the uncertainty stated by the source.

Assay: protein stability index of a GFP-peptide fusion (yeast GPS) (PSI 1-4); higher = more stable; sorted into four equal gates, so the index is relative within each strain
In short: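 Yeast carrying a pooled library were grown to mid-log phase in leucine-free medium. Each library plasmid expresses Cherry and has a tiled 17-residue yeast protein peptide fused downstream of GFP. Cells were sorted into four equal gates by GFP/Cherry ratio, and plasmids from each gate were PCR-amplified, Illumina-sequenced and assigned to strains by barcode. Summing, across gates, the read frequency times the gate number gave each peptide's protein stability index.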

Sequence	protein stability index (doa10∆)	protein stability index (pdr5∆)	protein stability index (san1∆)	protein stability index (ubr1∆)
TAAEKKERLTKEAAAIA [RPL8B]	2.15 ± 0.072	2.25 ± 0.09	1.91 ± 0.11	2.33 ± 0.05
NDSKEESTTEATGNESQ [YLR335W/NUP2]	–	3.14 ± 0.18	2.97 ± 0.22	3.35 ± 0.1
NENENFGYDIPLLDIVL [YML103C/NUP188]	2.48 ± 0.053	2.81 ± 0.064	2.92 ± 0.049	2.56 ± 0.056
GQKNEVRILRLITTNSV [SNF2]	2.21 ± 0.052	1.95 ± 0.052	2.14 ± 0.058	2.08 ± 0.049
FIENFLTNDTFEKKLSI [YML103C/NUP188]	3.18 ± 0.22	3.12 ± 0.12	3.2 ± 0.18	3 ± 0.093
ILECDLLICIGTSLKVA [SIR2]	2.05 ± 0.081	1.59 ± 0.061	2.14 ± 0.15	1.73 ± 0.05
RHLEKEGIIKPISKHSK [RPS25A]	3.04 ± 0.084	3.28 ± 0.093	2.96 ± 0.084	3.01 ± 0.076
PNRITLTDHRKETWLHE [SRB8]	2.8 ± 0.082	3.03 ± 0.086	3.17 ± 0.07	3.22 ± 0.068
KLSEIILNINNSTSKNT [SWI1]	2.96 ± 0.067	2.92 ± 0.077	2.74 ± 0.1	3.01 ± 0.062
IVNVNFMKSVIRSREAF [DIS3]	2.75 ± 0.065	2.77 ± 0.062	2.2 ± 0.098	2.31 ± 0.04
IHQNAGRLLRAMFEICL [BRR2]	1.85 ± 0.053	1.75 ± 0.054	2.21 ± 0.063	2.83 ± 0.048
EGNEKLAAVPAAGPASA [RPP2A]	2.06 ± 0.061	2.23 ± 0.063	2.17 ± 0.09	2.79 ± 0.063
QAINLGQVVLTPLTFAL [RPL14A]	1.53 ± 0.065	1.43 ± 0.049	1.25 ± 0.09	1.35 ± 0.067
LIEKEIQPKITELKKKL [SMC1]	3.02 ± 0.1	2.91 ± 0.089	2.9 ± 0.11	3.02 ± 0.077
EFFHLQHYLDTATAPRL [QCR6]	2.98 ± 0.057	3.03 ± 0.043	2.72 ± 0.058	3 ± 0.069
KITAKTQHEEEEEQDTG [IRR1]	2.69 ± 0.11	3.16 ± 0.13	2.82 ± 0.22	–
ESLTFNEFQLQWGKYQT [SWI1]	2.86 ± 0.049	2.93 ± 0.047	2.67 ± 0.045	2.91 ± 0.034
KKWKKYWQYKAGIPIGL [SWP82]	1.94 ± 0.067	2.25 ± 0.081	2.61 ± 0.11	2.01 ± 0.04
SQLAQVAAFVNNYPNVE [BRR2]	2.33 ± 0.064	2.63 ± 0.068	2.68 ± 0.067	2.76 ± 0.051
KKSQCKKKTTLEDFENF [YIL149C/MLP2]	2.87 ± 0.053	3.04 ± 0.051	3.08 ± 0.04	3.14 ± 0.048
DIPFFPSSEKPNIRTMS [SSN2]	–	–	3.1 ± 0.22	–
YISKIGEKIDSNKPIFL [SWI1]	3.02 ± 0.084	2.86 ± 0.06	3.01 ± 0.07	3.19 ± 0.09
EVTIEDALKVVLRTALV [RPS12]	3.35 ± 0.11	3.31 ± 0.091	3.35 ± 0.099	3.11 ± 0.067
ELESITESITHDSSNGL [NUT1]	2.95 ± 0.1	3.27 ± 0.074	3.25 ± 0.051	3.2 ± 0.067
KIKAILESVGIEIEDEK [RPP2A]	2.75 ± 0.084	3.3 ± 0.11	2.8 ± 0.11	2.99 ± 0.13
LRGEYNDLQSETKTKKE [SMC4]	–	3.4 ± 0.087	3.24 ± 0.072	2.82 ± 0.066
AKVNRPAKIVNFEKPKN [RPN5]	2.93 ± 0.069	3.12 ± 0.069	2.89 ± 0.056	3.12 ± 0.054

Sequence	protein stability index (doa10∆)	protein stability index (pdr5∆)	protein stability index (san1∆)	protein stability index (ubr1∆)
VSEITKLKFFPSGEALI [RPN14]	2.55 ± 0.089	2.76 ± 0.069	2.95 ± 0.064	3.18 ± 0.059
YSQSPPRSPGRSPTRRL [SMC4]	2.57 ± 0.15	3.19 ± 0.11	2.98 ± 0.089	3.04 ± 0.11
YPLLIRMSYGSHDKKTK [SRP14]	2.61 ± 0.06	2.49 ± 0.069	2.57 ± 0.043	2.6 ± 0.053
DNGGTILGIAGEDFAVL [PRE7]	3.46 ± 0.099	3.08 ± 0.13	3.34 ± 0.14	3.47 ± 0.052
ILLAGRFRGKRVVYLKH [RPL6A]	1.69 ± 0.078	2.17 ± 0.061	2.04 ± 0.1	2.12 ± 0.056
LINDSYINDVHLLYPPH [SSN8]	3.29 ± 0.058	3.14 ± 0.057	2.96 ± 0.045	3.25 ± 0.053
LPRCSKEEFRLMISPKD [RRI2]	1.77 ± 0.056	1.88 ± 0.063	1.58 ± 0.16	1.67 ± 0.044
CGGINDSIPYPQIVKLF [ECM29]	1.56 ± 0.07	1.31 ± 0.06	1.96 ± 0.086	1.71 ± 0.049
IAKFERSEEEVTKLNVL [YIL149C/MLP2]	3.4 ± 0.13	3.46 ± 0.093	3.31 ± 0.051	3.4 ± 0.069
TWTNSKIFIKDPKFVNS [YML103C/NUP188]	2.27 ± 0.11	2.05 ± 0.06	1.71 ± 0.11	1.73 ± 0.062
ANNIVNIVSDAGANDTS [GRR1]	3.2 ± 0.12	3.14 ± 0.074	3.64 ± 0.1	3.13 ± 0.094
PNNASSHISASASPHLA [SNF2]	2.53 ± 0.046	2.66 ± 0.044	2.51 ± 0.069	2.88 ± 0.039
PKSTAPIFSFGKQEENG [YOR098C/NUP1]	2.24 ± 0.053	2.75 ± 0.069	2.49 ± 0.059	2.38 ± 0.043
QLDLTGIFLHGKIPTLK [PRP8]	2.39 ± 0.078	1.43 ± 0.058	1.58 ± 0.089	1.36 ± 0.046
SEILSFDPVYTTVITVF [YML103C/NUP188]	2.08 ± 0.059	2.27 ± 0.051	1.6 ± 0.11	1.62 ± 0.048
HWPLNWYLILSIISSKT [RGR1]	1.57 ± 0.1	1.5 ± 0.08	1.4 ± 0.21	1.18 ± 0.067
TATLAWGVNLPAHTVII [BRR2]	1.26 ± 0.065	1.4 ± 0.067	1.81 ± 0.089	1.79 ± 0.064
ILTDLVNYRHFKAMEDV [ITC1]	2.94 ± 0.14	2.98 ± 0.11	3.28 ± 0.068	3.39 ± 0.063
AELIGLQPIFKGEEAKL [SSN3]	2.54 ± 0.18	1.57 ± 0.16	–	1.33 ± 0.2
ENGIEVELLDSNDRVNP [ITC1]	3.56 ± 0.078	3.2 ± 0.11	3.29 ± 0.062	3.19 ± 0.061
LDGDRADKRGVLTGGYL [SMC3]	2.93 ± 0.2	3.03 ± 0.23	–	3.07 ± 0.2
ADGPTMREITETIAEAK [RPO21]	3.46 ± 0.074	3.45 ± 0.055	3.39 ± 0.026	3.39 ± 0.041
QAQAQAHAQHQPSQQPQ [GAL11]	2.967 ± 0.022	2.972 ± 0.019	2.974 ± 0.022	3.028 ± 0.018
RVQLSGKIQENIPFWKH [SRP72]	2.56 ± 0.071	2.44 ± 0.067	2.13 ± 0.07	2.4 ± 0.041
ADAKAFLDSMAQKYASI [FAS2]	3.07 ± 0.083	3.19 ± 0.086	3.12 ± 0.047	2.94 ± 0.049
IYRVRVRRGNRKRPVPK [RPL15A]	–	2.86 ± 0.2	–	3.2 ± 0.14
EKIRPLRSRSFKSTESN [YMR129W/POM152]	–	–	2.87 ± 0.28	–
